Measurements published in patent publication US8349583B2, “Distinguishing cells in a sample by inactivating extracellular enzyme before releasing intracellular enzyme” (priority 2005, dated 2013).

Key:
[1] = test system: bacterial adenylate kinase; assay: AK reduction by different proteases over time for different organisms; type: biochemical; details: 37° C., 10 to 120 minutes; trypsin 1000, papain 10, proteinase K 2.5, chymotrypsin 1 U/ml
Experimental: • 1. Bacteria were scraped from plates and inoculated in approximately 20 ml of broth only. These were incubated overnight at 37° C. • 2. 10× stocks of the enzymes were prepared in broth only: • a. 10 mg of 16,000 U/mg Trypsin added to 16 ml of broth to give 10,000 U/ml (10×) stock. • b. 25 mg of 4 U/mg Papain added to 1 ml of broth to give 100 U/ml (10×) stock. • c. 10 mg of 7.5 U/mg proteinase K added to 3 ml of broth to give a 25 U/ml (10×) stock. • d. 10.5 ul of 239 U/ml chymotrypsin added to 239.5 ul of broth to give a 10 U/ml stock. • 3. The inoculums were then centrifuged at approximately 14030 RCF for one hour. • 4. The supernatant was then taken, tested for adenylate kinase activity (described below), and diluted with broth only if needed to give about 10^5 cpm/ml. • 5. The supernatant was then assayed for adenylate kinase activity at time point zero in triplicate and averaged. • 6. 1.5 ml solutions of the supernatants were prepared with the correct concentration of enzyme, or broth for control. These were incubated at 37° C. • 7. Samples were then taken and assayed in triplicate for adenylate kinase activity at 10, 30, 60 and 120 minutes. • 8. The triplicates were averaged, and normalised by dividing by the time point zero average. Adenylate Kinase Assay (AK Only No Cells) • 1. […] added to a cuvette. • 2. 50 μl of reagent 1 (ADP only; no lysis agent) added and vortexed briefly. • 3. After 5 minutes, the cuvette was placed into a luminometer. • 4. 50 μl of reagent 2 (dilution and luciferin/luciferase) firmly added directly to the sample. • 5. RLU read immediately.
The results are shown in FIG. 19 (S. epidermis), 20 (S. aureus), 21 (E. coli), 22 (E. faecalis), 23 (P. aeruginosa) and 24 (MRSA). Trypsin is still the protease of choice due to its consistency with both Gram +ve and Gram −ve bacteria.

organisms (11 species) = assay: Effect of trypsin on organisms (bacterial growth); type: cell-based; details: trypsin 1000 and 200 U/ml, 10^3 cfu/ml, 37° C., 3 hours
Experimental: FIGS. 4 to 14 show bacterial growth in the presence of AK. Bacteria were: (4) E. coli; (5) E. faecalis; (6) P. aeruginosa; (7) S. aureus; (8) K. pneumoniae; (9) E. cloacae; (10) K. oxytoca; (11) P. vulgaris; (12) A. baumanii; (13) S. enteritidis; and (14) S. narcescens.
To assess whether trypsin affects bacterial growth, 10^3 cfu/ml organisms were spiked into 1000, 200 and 0 (control) U/ml trypsin/MH samples. These mixtures were incubated at 37° C. for 3 hours, and aliquots were assayed at time 0, 1, 2 and 3 hours.

[2] = test system: AK in saponin-lysed blood; assay: Trypsin digestion of AK in various concentrations of lysed blood; type: biochemical; details: 1000 U/ml trypsin
Experimental: Saponin-lysed blood was serially diluted and mixed with 1000 or 200 U/ml trypsin/MH. The mixtures were incubated at 37° C. for 4 hours, and aliquots assayed at time 0, 1, 2, 3 and 4 hours.

E. faecalis [3] = assay: Trypsin digestion of intracellular bacterial AK, E. faecalis; type: cell-based; details: assayed immediately
Experimental: (§1) Experimental work used adenylate kinase-generated ATP to drive a luciferin/luciferase activity, giving results in RLUs as a quantitative measure of initial ATP levels. All AK assays were performed at pH 7.5, and 37° C. Results of the assay were read at ambient temperature.
(§2) Concentrations of 10^4 and 10^5 cfu/ml E. coli and E. faecalis where spiked into MH broth containing 1000, 200 and 0 (control) U/ml trypsin. These were assayed immediately.

[4] = test system: lysed blood AK background; assay: Lysed blood background with trypsin, negative (no organisms); type: biochemical; details: 10^−1 lysed blood, 1000 U/ml trypsin
Experimental: (§3) Approximately 10^2 cfu/ml organisms were spiked into a 10^−1 dilution of lysed blood in MH, containing 1000 U/ml trypsin. This was incubated at 37° C. for 4 hours, and aliquots were assayed at time 0, 1, 2, 3 and 4 hours.

[5] = target: bioluminescent system (luciferin/luciferase) (Photinus pyralis, UniProt P08659); assay: Trypsin control: effect of trypsin on the bioluminescent system; type: biochemical
bioluminescent system (luciferin/luciferase), sequence (P08659 whole entry): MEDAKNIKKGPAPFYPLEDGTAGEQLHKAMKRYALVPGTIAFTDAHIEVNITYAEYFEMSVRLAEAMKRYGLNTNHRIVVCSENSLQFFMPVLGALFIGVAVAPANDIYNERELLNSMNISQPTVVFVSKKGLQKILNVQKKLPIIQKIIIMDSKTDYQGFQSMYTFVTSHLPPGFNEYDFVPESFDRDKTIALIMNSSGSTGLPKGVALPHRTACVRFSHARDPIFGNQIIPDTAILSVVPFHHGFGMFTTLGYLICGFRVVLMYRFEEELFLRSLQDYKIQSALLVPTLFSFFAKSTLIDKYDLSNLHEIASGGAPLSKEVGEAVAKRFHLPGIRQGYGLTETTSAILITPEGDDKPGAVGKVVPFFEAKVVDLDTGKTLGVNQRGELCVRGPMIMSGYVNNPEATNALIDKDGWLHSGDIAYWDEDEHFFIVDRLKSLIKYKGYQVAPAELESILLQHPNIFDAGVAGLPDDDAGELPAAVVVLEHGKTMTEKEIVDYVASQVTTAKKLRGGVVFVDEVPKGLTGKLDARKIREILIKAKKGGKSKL
Experimental: as §1
In preliminary experiments, the effect of trypsin on the bioluminescent system was assessed. Samples of trypsin at different concentrations, diluted in Mueller-Hinton (MH^+) broth, were spiked with ATP.

E. faecalis [6] = assay: Organism growth against lysed blood background using trypsin, E. faecalis; type: cell-based; details: E. faecalis 10^2 cfu/ml, 10^−1 lysed blood, 1000 U/ml trypsin
Experimental: as §3

E. coli [7] = assay: Organism growth against lysed blood background using trypsin, E. coli; type: cell-based; details: E. coli 10^2 cfu/ml, 10^−1 lysed blood, 1000 U/ml trypsin
Experimental: as §3

[8] = target: Purified AK (B. stearothermophilus) (Geobacillus stearothermophilus, UniProt P27142); assay: AK reduction by trypsin over time, purified bacterial AK; type: biochemical; details: 5000, 1000, 200 U/ml trypsin, 37° C., up to 1 hour; compared with lysed blood AK
Purified AK (B. stearothermophilus), sequence (P27142 whole entry): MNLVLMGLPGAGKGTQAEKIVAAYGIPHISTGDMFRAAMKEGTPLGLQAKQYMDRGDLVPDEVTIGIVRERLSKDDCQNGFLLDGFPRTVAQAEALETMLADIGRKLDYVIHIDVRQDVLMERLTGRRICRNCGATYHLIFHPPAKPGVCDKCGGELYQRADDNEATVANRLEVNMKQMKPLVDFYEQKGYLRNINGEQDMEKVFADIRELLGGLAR
Experimental: (§4) Purified AK (B. stearothermophilus) or a 10^−3 dilution of saponin-lysed blood was incubated for 1 hour at 37° C. in 5000, 1000, 200 and 0 (control) U/ml trypsin diluted in MH broth (‘trypsin/MH’). Aliquots were assayed at time 0, 15 minutes, 30 minutes and 1 hour.

E. coli [9] = assay: Trypsin digestion of intracellular bacterial AK, E. coli; type: cell-based; details: for Mean RLU: assayed immediately
Experimental: as §1, §2

P. aeruginosa = assay: Organism growth against lysed blood background using trypsin, P. aeruginosa; type: cell-based; details: P. aeruginosa 10^2 cfu/ml, 10^−1 lysed blood, 1000 U/ml trypsin
Experimental: as §3

AK in lysed blood = assay: AK reduction by trypsin over time, saponin-lysed blood; type: biochemical; details: 10^−3 dilution of lysed blood, 5000, 1000, 200 U/ml trypsin, 37° C., up to 1 hour
Experimental: as §4

B1: proteinase K (protein, UniProt P06873 106-384, looked up)
Proteinase K: AAQTNAPWGLARISSTSPGTSTYYYDESAGQGSCVYVIDTGIEASHPEFEGRAQMVKTYYYSSRDGNGHGTHCAGTVGSRTYGVAKKTQLFGVKVLDDNGSGQYSTIIAGMDFVASDKNNRNCPKGVVASLSLGGGYSSSVNSAAARLQSSGVMVAVAAGNNNADARNYSPASEPSVCTVGASDRYDRRSSFSNYGSVLDIFGPGTSILSTWIGGSTRSISGTSMATPHVAGLAAYLMTLGKTTAASACRYIADTANKGDLSNIPFGTVNLLAYNNYQA
notes: protease, 7.5 U/mg, used at 2.5 U/ml
- degradation of AK extracted from different organisms [1]: degraded the AK in a similar manner to trypsin

B2: Papain (protein, UniProt P00784 134-345, looked up)
Papain: IPEYVDWRQKGAVTPVKNQGSCGSCWAFSAVVTIEGIIKIRTGNLNEYSEQELLDCDRRSYGCNGGYPWSALQLVAQYGIHYRNTYPYEGVQRYCRSREKGPYAAKTDGVRQVQPYNEGALLYSIANQPVSVVLEAAGKDFQLYRGGIFVGPCGNKVDHAVAAVGYGPNYILIKNSWGTGWGENGYIRIKRGTGNSYGVCGLYTSSFYPVKN
notes: protease, 4 U/mg, used at 10 U/ml
- degradation of AK extracted from different organisms [1]: degraded the AK in a similar manner to trypsin

B3: trypsin (protein, UniProt P00761 9-231, looked up)
Trypsin: IVGGYTCAANSIPYQVSLNSGSHFCGGSLINSQWVVSAAHCYKSRIQVRLGEHNIDVLEGNEQFINAAKIITHPNFNGNTLDNDIMLIKLSSPATLNSRVATVSLPRSCAAAGTECLISGWGNTKSSGSSYPSLLQCLKAPVLSDSSCKSSYPGQITGNMICVGFLEGGKDSCQGDSGGPVVCNGQLQGIVSWGYGCAQKNKPGVYTKVCNYVNWIQQTIAAN
- effect on bacterial growth (organisms (11 species)): minimal (if any) effect on the organisms
- reduction of background ([2]; 10^−1 dilution of blood, 4 hours): 25,000 fold
- background RLU after trypsin digestion ([2]; 10^−1 dilution of blood, 4 hours, from approximately 100 million RLU): 4,000 RLU
- time in which the vast majority of AK digestion occurs [2]: ≤ 2 h
- Mean RLU (E. faecalis [3]; E. faecalis 10^4 cfu/ml, trypsin 200 U/ml): 13,310 RLU
- Mean RLU (E. faecalis [3]; E. faecalis 10^4 cfu/ml, trypsin 1000 U/ml): 17,369 RLU
- Mean RLU (E. faecalis [3]; E. faecalis 10^5 cfu/ml, trypsin 200 U/ml): 87,059 RLU
- Mean RLU (E. faecalis [3]; E. faecalis 10^5 cfu/ml, trypsin 1000 U/ml): 103,959 RLU
- degradation of AK extracted from different organisms [1]: degraded the AK
- Mean RLU ([4]; 1 hr): 7,864 RLU
- Mean RLU ([4]; 2 hrs): 3,148 RLU
- Mean RLU ([4]; 3 hrs): 2,001 RLU
- Mean RLU ([4]; 4 hrs): 1,572 RLU
- Mean RLU ([4]; Time 0): overload
- Mean RLU ([5]; +ATP, trypsin 200 U/ml in MH broth): 68,036 RLU
- Mean RLU ([5]; +ATP, trypsin 1000 U/ml in MH broth): 64,005 RLU
- Mean RLU ([5]; +ATP, trypsin 5000 U/ml in MH broth): 81,276 RLU
- Mean RLU ([5]; No ATP, trypsin 200 U/ml in MH broth): 646 RLU
- Mean RLU ([5]; No ATP, trypsin 1000 U/ml in MH broth): 538 RLU
- Mean RLU ([5]; No ATP, trypsin 5000 U/ml in MH broth): 414 RLU
- background ATP-generating activity associated with trypsin ([5]; no ATP): little or no background ATP-generating activity
- effect on bioluminescence signal ([5]; trypsin 5000 U/ml): boosted
- effect on the bioluminescence reaction ([5]; trypsin levels ≦1000 U/ml): minimal/no effect on the bioluminescence reaction
- Mean RLU (E. faecalis [6]; 1 hr): 10,099 RLU
- Mean RLU (E. faecalis [6]; 2 hrs): 4,939 RLU
- Mean RLU (E. faecalis [6]; 3 hrs): 15,587 RLU
- Mean RLU (E. faecalis [6]; 4 hrs): 106,762 RLU
- Mean RLU (E. faecalis [6]; Time 0): overload
- Mean RLU (E. coli [7]; 1 hr): 9,605 RLU
- Mean RLU (E. coli [7]; 2 hrs): 7,460 RLU
- Mean RLU (E. coli [7]; 3 hrs): 41,121 RLU
- Mean RLU (E. coli [7]; 4 hrs): 353,541 RLU
- Mean RLU (E. coli [7]; Time 0): overload
- degradation of purified bacterial AK by trypsin [8]: does not occur as dramatically or rapidly as the AK from lysed blood
- Mean RLU (E. coli [9]; E. coli 10^4 cfu/ml, trypsin 200 U/ml): 7,197 RLU
- Mean RLU (E. coli [9]; E. coli 10^4 cfu/ml, trypsin 1000 U/ml): 12,694 RLU
- Mean RLU (E. coli [9]; E. coli 10^5 cfu/ml, trypsin 200 U/ml): 65,452 RLU
- Mean RLU (E. coli [9]; E. coli 10^5 cfu/ml, trypsin 1000 U/ml): 106,552 RLU
- AK signal from lysed bacteria lost during the AK reaction due to trypsin digestion (E. coli [9]; E. coli and E. faecalis, trypsin 200 and 1000 U/ml): 10-20%
- Mean RLU (P. aeruginosa; 1 hr): 8,852 RLU
- Mean RLU (P. aeruginosa; 2 hrs): 3,582 RLU
- Mean RLU (P. aeruginosa; 3 hrs): 3,332 RLU
- Mean RLU (P. aeruginosa; 4 hrs): 8,123 RLU
- Mean RLU (P. aeruginosa; Time 0): overload
- digestion of AK in lysed blood by trypsin (AK in lysed blood): digested rapidly
